{"source": "patent US9051364B2", "about": "“Composition for producing anti-amyloid beta peptide antibodies with D-peptides” (FORSCHUNGSZENTRUM JUELICH GMBH, priority 2008, dated 2015)", "molecular_target": "T1, amyloid beta peptide (Homo sapiens, UniProt P05067)", "T1 construct": "tested for the recognition of both the D3 peptide and the amyloid beta peptide in a standard ELISA", "T1 sequence (P05067 672-713 limits assumed)": "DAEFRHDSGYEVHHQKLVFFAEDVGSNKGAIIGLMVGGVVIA", "test": "Immunization of mice with D-peptides", "format": "in vivo", "details": "D3 covalently bonded to KLH, booster injections", "procedure": "Mice were immunized with D-peptides. Use was made of the D3 peptide and also a retro-inverse peptide of the amyloid beta peptide (riAbeta1-16; retro-inverso-Abeta(1-16)). After multiple booster injections (booster effect), fusion to generate monoclonal antibodies was carried out according to standard methods. It was possible to isolate monoclonal antibodies which bind to D3, riAbetal-16, and to the amyloid beta peptide. The immunization with the mentioned D-peptides thus leads to a protective immune response against the amyloid beta peptide. D3 was covalently bonded (crosslinking) to KLH (keyhole limpet hemocyanin) and immunized mice with standard procedures. These were then fused with mouse myeloma cells according to standard protocols. The cell culture supernatant of the resulting hybridoma cells were then tested for the recognition of both the D3 peptide and the amyloid beta peptide in a standard ELISA.", "note": "Where no end group is shown, it is not given here. [ ]: non-standard residue; d: D form."}
{"substance": "rprtr lhthr nr ([dR][dP][dR][dT][dR][dL][dH][dT][dH][dR][dN][dR]; also: conjugated to KLH) [D3, D-peptide used as immunogen, covalently bonded to KLH]", "values": [{"measurement": "antibody response against the amyloid beta peptide after immunization", "result": "results in an antibody response against the amyloid beta peptide"}]}
